Values belong to the binder of their own block, whether it stands above or below them.
Legend:
[1] = target: T1, 4H2931-bA; assay: two-hybrid library CCNG1;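 also: natural log of median RNA to DNA barcode read ratio; higher means stronger binding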
T1 chain: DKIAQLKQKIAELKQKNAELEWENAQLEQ

[2] = target: T2, 4H3381-bA; assay: two-hybrid library CCNG1;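 also: natural log of median RNA to DNA barcode read ratio; higher means stronger binding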
T2 chain: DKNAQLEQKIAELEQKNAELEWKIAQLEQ

[3] = target: T3, 4H949-bA; assay: two-hybrid library CCNG1;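 also: natural log of median RNA to DNA barcode read ratio; higher means stronger binding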
T3 chain: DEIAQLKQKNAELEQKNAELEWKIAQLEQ

[4] = target: T4, 4H56-bA; assay: two-hybrid library CCNG1;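 also: natural log of median RNA to DNA barcode read ratio; higher means stronger binding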
T4 chain: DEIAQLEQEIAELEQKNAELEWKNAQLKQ

[5] = target: T5, 4H2585-bA; assay: two-hybrid library CCNG1;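 also: natural log of median RNA to DNA barcode read ratio; higher means stronger binding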
T5 chain: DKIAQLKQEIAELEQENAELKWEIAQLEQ

[6] = target: T6, 4H3041-bA; assay: two-hybrid library CCNG1;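 also: natural log of median RNA to DNA barcode read ratio; higher means stronger binding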
T6 chain: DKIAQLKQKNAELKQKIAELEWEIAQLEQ

[7] = target: T7, 4H2253-bA; assay: two-hybrid library CCNG1
T7 chain: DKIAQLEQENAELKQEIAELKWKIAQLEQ

[8] = target: T8, 4H2444-bA; assay: two-hybrid library CCNG1
T8 chain: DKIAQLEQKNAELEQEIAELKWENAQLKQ

[9] = target: T9, 4H2233-bA; assay: two-hybrid library CCNG1
T9 chain: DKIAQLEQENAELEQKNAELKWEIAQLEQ

[10] = target: T10, 4H2859-bA; assay: two-hybrid library CCNG1
T10 chain: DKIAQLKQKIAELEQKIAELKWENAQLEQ

[11] = target: T11, 4H235-bA; assay: two-hybrid library CCNG1
T11 chain: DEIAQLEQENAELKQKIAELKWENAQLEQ

[12] = target: T12, 4H2760-bA; assay: two-hybrid library CCNG1
T12 chain: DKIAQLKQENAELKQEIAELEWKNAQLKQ

[13] = target: T13, 4H796-bA; assay: two-hybrid library CCNG1
T13 chain: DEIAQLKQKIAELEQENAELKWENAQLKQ

[14] = target: T14, 4H2518-bA; assay: two-hybrid library CCNG1
T14 chain: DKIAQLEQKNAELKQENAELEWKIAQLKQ

[15] = target: T15, 4H264-bA; assay: two-hybrid library CCNG1
T15 chain: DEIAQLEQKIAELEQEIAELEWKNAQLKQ

[16] = target: T16, 4H349-bA; assay: two-hybrid library CCNG1
T16 chain: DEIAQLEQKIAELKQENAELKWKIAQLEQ

[17] = target: T17, 4H730-bA; assay: two-hybrid library CCNG1
T17 chain: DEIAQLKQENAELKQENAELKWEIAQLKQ

[18] = target: T18, 4H932-bA; assay: two-hybrid library CCNG1
T18 chain: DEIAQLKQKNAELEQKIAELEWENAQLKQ

[19] = target: T19, 4H3364-bA; assay: two-hybrid library CCNG1
T19 chain: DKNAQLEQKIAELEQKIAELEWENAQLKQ

[20] = target: T20, 4H3297-bA; assay: two-hybrid library CCNG1
T20 chain: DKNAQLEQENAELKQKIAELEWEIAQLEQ

[21] = target: T21, 4H465-AA; assay: two-hybrid library CCmax; details: mean of both orientations
T21 chain: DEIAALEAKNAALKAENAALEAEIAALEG

[22] = target: T22, 4H2898-AA; assay: two-hybrid library CCmax; details: mean of both orientations
T22 chain: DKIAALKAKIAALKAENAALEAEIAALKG

[23] = target: T23, 4H2750-AA; assay: two-hybrid library CCmax; details: mean of both orientations
T23 chain: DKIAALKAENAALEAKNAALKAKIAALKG

[24] = target: T24, 4H3782-AA; assay: two-hybrid library CCmax; details: mean of both orientations
T24 chain: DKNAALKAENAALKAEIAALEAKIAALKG

[25] = target: T25, 4H2721-AA; assay: two-hybrid library CCmax; details: mean of both orientations
T25 chain: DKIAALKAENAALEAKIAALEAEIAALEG

[26] = target: T26, 4H3020-AA; assay: two-hybrid library CCmax; details: mean of both orientations
T26 chain: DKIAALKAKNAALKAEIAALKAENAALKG

[27] = target: GCN2_T; assay: two-hybrid library CCmax; details: mean of both orientations
[28] = target: T27, 4H486-AA; assay: two-hybrid library CCmax; details: mean of both orientations
T27 chain: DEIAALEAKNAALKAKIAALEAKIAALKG

[29] = target: T28, 4H58-AA; assay: two-hybrid library CCmax; details: mean of both orientations
T28 chain: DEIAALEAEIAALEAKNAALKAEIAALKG

[30] = target: T29, 4H3651-AA; assay: two-hybrid library CCmax; details: mean of both orientations
T29 chain: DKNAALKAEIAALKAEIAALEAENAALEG

[31] = target: T30, 4H3705-AA; assay: two-hybrid library CCmax; details: mean of both orientations
T30 chain: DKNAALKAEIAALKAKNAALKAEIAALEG

[32] = target: T31, 4H2600-AA; assay: two-hybrid library CCmax; details: mean of both orientations
T31 chain: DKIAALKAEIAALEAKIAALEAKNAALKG

[33] = target: 4H_GCN4; assay: two-hybrid library CCmax
[34] = target: T32, 4H1802-AA; assay: two-hybrid library CCmax; details: mean of both orientations
T32 chain: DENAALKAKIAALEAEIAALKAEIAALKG

[35] = target: T33, 4H3365-AA; assay: two-hybrid library CCmax; details: mean of both orientations
T33 chain: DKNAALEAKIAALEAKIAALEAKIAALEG

[36] = target: T34, 4H535-AA; assay: two-hybrid library CCmax; details: mean of both orientations
T34 chain: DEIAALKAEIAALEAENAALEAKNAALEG

[37] = target: T35, 4H895-AA; assay: two-hybrid library CCmax; details: mean of both orientations
T35 chain: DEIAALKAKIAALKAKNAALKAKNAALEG

[38] = target: T36, 4H355-AA; assay: two-hybrid library CCmax; details: mean of both orientations
T36 chain: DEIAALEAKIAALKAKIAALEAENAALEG

[39] = target: T37, 4H140-AA; assay: two-hybrid library CCmax
T37 chain: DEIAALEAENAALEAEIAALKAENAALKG

[40] = target: T38, 4H_BCR; assay: two-hybrid library CCmax; details: mean of both orientations
T38 chain: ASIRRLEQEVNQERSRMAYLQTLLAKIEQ

[41] = target: T39, 4H_APH; assay: two-hybrid library CCmax; details: mean of both orientations
T39 chain: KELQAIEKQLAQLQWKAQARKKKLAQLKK

Sequence of 4H_GCN4 (chain, as listed by the source): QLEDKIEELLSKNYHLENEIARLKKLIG

- interaction score [1]: -1.08
- interaction score [2]: -0.976
- interaction score [3]: -1
- interaction score [4]: -1.39
- interaction score [5]: -1.22
- interaction score [6]: 0.018
- interaction score [7]: -1.28
- interaction score [8]: -1.1
- interaction score [9]: -0.789
- interaction score [10]: -0.945
- interaction score [11]: -1.01
- interaction score [12]: -0.641
- interaction score [13]: -1.42
- interaction score [14]: 2.31
- interaction score [15]: -1.45
- interaction score [16]: -1.43
- interaction score [17]: -1.24
- interaction score [18]: -1.01
- interaction score [19]: -0.979
- interaction score [20]: -0.632
Binder: DKIAQLEQENAELEQKNAELKWEIAQLEQ [4H2233-bA]

- interaction score [21]: -1.51
- interaction score [22]: -0.325
- interaction score [23]: -0.883
- interaction score [24]: -0.5
- interaction score [25]: -1.25
- interaction score [26]: 2.23
- interaction score [27]: -1.08
- interaction score [28]: -0.379
- interaction score [29]: 1.01
- interaction score [30]: -1.02
- interaction score [31]: 1.36
- interaction score [32]: -1.83
- interaction score [33]: -0.95
- interaction score [34]: -1.67
- interaction score [35]: -1.08
- interaction score [36]: -1.56
- interaction score [37]: -1.44
- interaction score [38]: -1.06
- interaction score [39]: 1.28
- interaction score [40]: -1.18
- interaction score [41]: -2.79
Binder: DEIAALEAENAALEAEIAALKAENAALKG [4H140-AA]
